{"source": "the supplement of paper PMC7125110", "parents": {"B1": {"name": "glmS ribozyme (parent)", "chain": "AUAAAAGCGCCAGAACUACAGAAAUGUAGUUGACGAGGAGGAGGUUUAUCGAAUUUUCGGCGGAUGCCUCCAAA"}}, "note": "± gives the standard error. Fewer inactive variants are shown than the library holds."}
{"variants_of": "B1", "assay": "self-cleavage kobs at 2500 uM GlcN6P; higher = faster cleavage; RNA array", "conditions": "with glucosamine-6-phosphate", "how_it_was_run": "(§1)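 Ribozyme variants carrying barcodes were transcribed in situ on sequenced MiSeq chips by E. coli RNA polymerase and tracked at 37 °C with a hybridised Cy3 probe. They were exposed to 40 μM to 10 mM glucosamine-6-phosphate in HEPES/KCl/Mg(OAc)2 buffer. kobs came from exponential decay fits of normalised per-tile medians, and kcat and KM from weighted Michaelis–Menten fits.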", "units": {"self-cleavage kobs at 2500 uM GlcN6P": "s⁻¹"}}
{"variant": "AUAAAAGCGCCAGAUCUACAGAAAUGUAGUUGACCAGUAGGAGGUUGAUCGAAUUUUCGGCGGAUGCCGCCAAA", "note": "[A15U G35C G38U U47G U69G]", "self-cleavage kobs at 2500 uM GlcN6P": "< 1e-05"}
{"variant": "AUAAAAGCGCCAGAGCUACAGAAAUGUAGUUGACGAGGAGGAGGCUUAUCGAAUUUUCGGCGGAGGUCUCCAAA", "note": "[A15G U45C U65G C67U]", "self-cleavage kobs at 2500 uM GlcN6P": "0.000125 ± 3.7e-05"}
{"variant": "AUAAAAGCGCCAGAUCUACAGAAAUGUACUUGACGAGGAUGAGGUUUAUCGAAUUUUCGGCGGAUGCCUCCAAA", "note": "[A15U G29C G40U]", "self-cleavage kobs at 2500 uM GlcN6P": "3.13e-05 ± 1.2e-05"}
{"variant": "AUAAAAGCGCCAGAUCUACAGAAAUGUAGUUGACGAGUAGGAGGUUUAUCGAAUUUUCGGCGGAUGCCGCCAAA", "note": "[A15U G38U U69G]", "self-cleavage kobs at 2500 uM GlcN6P": "0.000183 ± 4.2e-05"}
{"variant": "AUAAAAGCGCCAGAGCUACAGAAAUGUAGAUGACGAGGAGGAGGUUUAUCGAAUUUUCGGCGGAUGCCUCUAAA", "note": "[A15G U30A C71U]", "self-cleavage kobs at 2500 uM GlcN6P": "0.0164 ± 0.0034"}
{"variant": "AUAAAAGCGCCAGACCUACAGAAAUGUAGUUGACGAAGAGGAGGUUUAUCGAAUUUUCGGCGGAGGCCUCCAAA", "note": "[A15C G37A U65G]", "self-cleavage kobs at 2500 uM GlcN6P": "8.59e-05 ± 2.6e-05"}
{"variant": "AUAAAAGCGCCAGACCUACAGAAAUGUAGUUGACGAGGAGGAGAUUUAUCGAAUUUUGGGCUGAUGCCUCCAAA", "note": "[A15C G44A C58G G62U]", "self-cleavage kobs at 2500 uM GlcN6P": "< 1e-05"}
{"variant": "AUAAAAGCGCCAGAAAUACAGAAAUGUAGUUGAUGAGGAGGAGGUUUAUCUAAUUUUCGGCGGAUGCCUCCAAA", "note": "[C16A C34U G51U]", "self-cleavage kobs at 2500 uM GlcN6P": "< 1e-05"}
{"variant": "AUAAAAGCGCCAGAGCUACAGAAAUGUAGUUGACCAUGAGGACGUUUAUCGAAUUUUCGGCGGAUGCCUCCAAA", "note": "[A15G G35C G37U G43C]", "self-cleavage kobs at 2500 uM GlcN6P": "< 1e-05"}
{"variant": "AUAAAAGCGCCAGAUCUACAGAAAUGUAGUUGACGAGGAGGAGGUUUAUCGAAGUUUAGGCGGAUGCCUCCAAA", "note": "[A15U U54G C58A]", "self-cleavage kobs at 2500 uM GlcN6P": "3.84e-05 ± 1.4e-05"}
{"variant": "AUAAAAGCGCCAGACCUACAGAAAUGUAGUUGACGAGGAGGAGGGUUAUCGAAAUUUCGGCGGAUGCCUCCAAA", "note": "[A15C U45G U54A]", "self-cleavage kobs at 2500 uM GlcN6P": "0.000589 ± 0.00012"}
{"variant": "AUAAAAGCGCCAGAUCUACAGAAAUGUAGUUGACGAGGAGGAGGUUUAUCGAAUGUUCGGCGGAUUCCUCCAAA", "note": "[A15U U55G G66U]", "self-cleavage kobs at 2500 uM GlcN6P": "7.43e-05 ± 1.6e-05"}
{"variant": "AUAAAAGCGCCAGAUCUACAGAAAUGUAGUUGACGAGGAGGAGGUUUAUCGAAUUUUGGGCGGAUGCCUCCAAA", "note": "[A15U C58G]", "self-cleavage kobs at 2500 uM GlcN6P": "2.95e-05 ± 1e-05"}
{"variant": "AUAAAAGCGCCAGACCUACAGAAAUGUAGUUGACGAUGCGAAGGUUUAUCGAAUUUUCGGCGUAUCCCUCCAAA", "note": "[A15C G37U A39C G41A G63U G66C]", "self-cleavage kobs at 2500 uM GlcN6P": "< 1e-05"}
{"variant": "AUAAAAGCGCCAGAUCUACAGAAAUGUAGUUGACGGGGUGGAGGUUUAUCGAAUUUUCGGCGGAUGCCUCCAAA", "note": "[A15U A36G A39U]", "self-cleavage kobs at 2500 uM GlcN6P": "< 1e-05"}
{"variant": "AUAAAAGCGCCAGAAAUACAGAAAUGUAGUUGACGAGAAGGAGGUUUAUCGAAUAUUCGGCGGAUGCCUCCAAA", "note": "[C16A G38A U55A]", "self-cleavage kobs at 2500 uM GlcN6P": "< 1e-05"}
{"variant": "AUAAAAGCGCCAGAUUUACAGAAAUGUAGUUGUCGAGGAGGUGGUUUAUCGAAUUUGCGGCCGUUGCCUCCAAA", "note": "[A15U C16U A33U A42U U57G G62C A64U]", "self-cleavage kobs at 2500 uM GlcN6P": "< 1e-05"}
{"variant": "AUAAAAGCGCCAGACCUACAGAAAUGUAGUUGACCAGGAGGAGGUUUAUCGAAUUUUCGGCGGAUGCCCCCAAA", "note": "[A15C G35C U69C]", "self-cleavage kobs at 2500 uM GlcN6P": "< 1e-05"}
{"variant": "AUAAAAGCGCCAGAGCUACAGAAAUGUAGUUGACGAGGAGGAGGUUUAUCAAAUUUCCGGCGGAUGCCUCCAAA", "note": "[A15G G51A U57C]", "self-cleavage kobs at 2500 uM GlcN6P": "< 1e-05"}
{"variant": "AUAAAAGCGCCAGAUCUACAGAAAUGUAGUUGACGAGGAGGAGGUUUAGCGAAUUUUCGGCGGAUUCCUCCAAA", "note": "[A15U U49G G66U]", "self-cleavage kobs at 2500 uM GlcN6P": "< 1e-05"}
{"variant": "AUAAAAGCGCCAGAUCUACAGAAAUGUAGUUGACUAGGAGGAGGUUUCUCGAAUUUUCGGCGGUUGCCUCCAAA", "note": "[A15U G35U A48C A64U]", "self-cleavage kobs at 2500 uM GlcN6P": "< 1e-05"}
{"variant": "AUAAAAGCGCCAGACCUACAGAAAUGUAGUUGACGAGGAGGAGGAUUAUCGAAUUUUCGGCGGGUGCCUCCAAA", "note": "[A15C U45A A64G]", "self-cleavage kobs at 2500 uM GlcN6P": "0.00477 ± 0.002"}
{"variant": "AUAAAAGCGCCAGAUCUACAGAAAUGUAGCUGACGAGGAGGAGGUUUAUCGAAUUUUCGGGGGAUGCCUCCAAA", "note": "[A15U U30C C61G]", "self-cleavage kobs at 2500 uM GlcN6P": "< 1e-05"}
{"variant": "AUAAAAGCGCCAGAGCUACAGAAAUGUAGCUGACGAGGAGGAGGUUUAUCUAAUUUUCGGCGGACGCCUCCAAA", "note": "[A15G U30C G51U U65C]", "self-cleavage kobs at 2500 uM GlcN6P": "< 1e-05"}
{"variant": "AUAAAAGCGCCAGAUCUACAGAAAUGUAGUUGACGAGGUGGAGGUUUAUCGAAUUUUCGGCGGAUGCCCCCAAA", "note": "[A15U A39U U69C]", "self-cleavage kobs at 2500 uM GlcN6P": "0.000466 ± 0.00018"}
{"variant": "AUAAAAGCGCCAGAGCUACAGAAAUGUAGUUCACGAGGAGGAGGUUUAUCGAAUUUUCGGCGGAUGCCUGCAAA", "note": "[A15G G32C C70G]", "self-cleavage kobs at 2500 uM GlcN6P": "< 1e-05"}
{"variant": "AUAAAAGCGCCAGAUCUACAGAAAUGUAGUUGUCGAGGAGGAGGUUUAUCGAAUUUUCGGCAGAUGCCUCCAAA", "note": "[A15U A33U G62A]", "self-cleavage kobs at 2500 uM GlcN6P": "< 1e-05"}
{"variant": "AUAAAAGCGCCAGAGCUACAGAAAUGUAGUUGACGAGGAGGAGGUUUAUCGAAUUUUCAGCGGAUGCCUUCAAA", "note": "[A15G G59A C70U]", "self-cleavage kobs at 2500 uM GlcN6P": "4.76e-05 ± 1.4e-05"}
{"variant": "AUAAAAGCGCCAGAGCUACAGAAAUGUAGUUGACGAGGAGGAGGUUAAUCGAAUUUUGGGCGGAUGCCUCCAAA", "note": "[A15G U47A C58G]", "self-cleavage kobs at 2500 uM GlcN6P": "4.72e-05 ± 1.4e-05"}
{"variant": "AUAAAAGCGCCAGAUGUACAGAAAUGUAGUUGACGAGGAGGAGGUUUAUCGAAUUUUAGGCGGAUGCCUCCAAA", "note": "[A15U C16G C58A]", "self-cleavage kobs at 2500 uM GlcN6P": "0.000131 ± 2.8e-05"}
{"variant": "AUAAAAGCGCCAGACCUACAGAAAUGUAGUCGACGAGGAGGAGGUUUAUCGAAUUUUCGGCGGAUGCCUCAAAA", "note": "[A15C U31C C71A]", "self-cleavage kobs at 2500 uM GlcN6P": "0.000185 ± 3.9e-05"}
{"variant": "AUAAAAGCGCCAGACCUACAGAAAUGUAGCUGACGAGGAGGAGGUUUAUCGAAUUUUCGGCGGAUGCGUCCAAA", "note": "[A15C U30C C68G]", "self-cleavage kobs at 2500 uM GlcN6P": "0.000192 ± 6.4e-05"}
{"variant": "AUAAAAGCGCCAGAGCUACAGAAAUGUAGUGUACGAGGAGGAGGAUUAUCGAAUUUUCGGCGGAUGCCUCCAAA", "note": "[A15G U31G G32U U45A]", "self-cleavage kobs at 2500 uM GlcN6P": "0.000424 ± 0.00012"}
{"variant": "AUAAAAGCGCCAGACCUACAGAAAUGUAGUUGACGAGGAGGAUGUUUAUCGAAUUUUCGGCGGAUGACUCCAAA", "note": "[A15C G43U C67A]", "self-cleavage kobs at 2500 uM GlcN6P": "0.000235 ± 7.7e-05"}
{"variants_of": "B1", "assay": "self-cleavage kobs at 10000 uM GlcN6P; higher = faster cleavage; RNA array", "conditions": "with glucosamine-6-phosphate", "how_it_was_run": "as §1", "units": {"self-cleavage kobs at 10000 uM GlcN6P": "s⁻¹"}}
{"variant": "AUAAAAGCGCCAGAUCUACAGAAAUGUAGUUGACCAGUAGGAGGUUGAUCGAAUUUUCGGCGGAUGCCGCCAAA", "note": "[A15U G35C G38U U47G U69G]", "self-cleavage kobs at 10000 uM GlcN6P": "0.000954 ± 0.0003"}
{"variant": "AUAAAAGCGCCAGAUCUACAGAAAUGUAGUUGACGAGGAGGAGGUUUAUCGAAUUUUGGGCGGAUGCCUCCAAA", "note": "[A15U C58G]", "self-cleavage kobs at 10000 uM GlcN6P": "4.63e-05 ± 1.2e-05"}
{"variant": "AUAAAAGCGCCAGAUCUACAGAAAUGUAGUUGACGGGGUGGAGGUUUAUCGAAUUUUCGGCGGAUGCCUCCAAA", "note": "[A15U A36G A39U]", "self-cleavage kobs at 10000 uM GlcN6P": "< 1e-05"}
